Biological target: T1, TRPV2-MBP (wild-type TRPV2 with an N-terminal maltose binding protein tag), Q9WUD2
T1 chain: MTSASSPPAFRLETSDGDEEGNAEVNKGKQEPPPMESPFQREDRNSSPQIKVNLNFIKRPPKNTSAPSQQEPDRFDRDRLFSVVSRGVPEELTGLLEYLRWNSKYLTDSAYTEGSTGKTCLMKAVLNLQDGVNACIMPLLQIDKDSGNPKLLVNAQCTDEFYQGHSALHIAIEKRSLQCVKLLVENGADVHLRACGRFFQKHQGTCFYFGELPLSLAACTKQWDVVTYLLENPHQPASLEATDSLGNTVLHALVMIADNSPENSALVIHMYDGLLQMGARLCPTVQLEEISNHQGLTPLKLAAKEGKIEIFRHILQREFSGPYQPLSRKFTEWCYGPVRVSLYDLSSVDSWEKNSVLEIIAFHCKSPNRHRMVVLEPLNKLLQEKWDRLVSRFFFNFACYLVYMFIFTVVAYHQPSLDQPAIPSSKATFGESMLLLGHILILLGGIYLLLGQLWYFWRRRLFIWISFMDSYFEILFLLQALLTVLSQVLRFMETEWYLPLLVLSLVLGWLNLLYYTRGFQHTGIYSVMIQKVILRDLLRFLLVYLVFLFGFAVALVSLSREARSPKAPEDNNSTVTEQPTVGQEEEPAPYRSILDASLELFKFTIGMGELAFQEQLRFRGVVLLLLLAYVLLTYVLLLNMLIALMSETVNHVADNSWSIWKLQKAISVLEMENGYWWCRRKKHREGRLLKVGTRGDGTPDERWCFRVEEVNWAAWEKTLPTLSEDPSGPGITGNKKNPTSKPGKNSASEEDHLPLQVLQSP
Assay: SEC
Settings: remark: other sources report otherwise

stoichiometry N: 4
B1: TRPV2-MBP (wild-type TRPV2 with an N-terminal maltose binding protein tag), Q9WUD2 1-761 (natural protein)
chain: T1 chain

Source: PMC11580892
